Measured values reported in PMC11413788, “The heterobivalent (SSTR2/albumin) radioligand [^67Cu]Cu-NODAGA-cLAB4-TATE enables efficient somatostatin receptor radionuclide theranostics” (Theranostics, 2024).
Like-named read-outs stand apart in the source and are kept apart here.

Experiments:
MPC cells [1] = experiment: Uptake of radioligands in intact MPC cells (acid wash); format: cell-based, mouse; settings: 25 nmol/L; for Uptake fraction: non-acid-releasable fraction normalized to specifically bound radioligand
Procedure: Uptake of SSTR2 radioligands was measured and analyzed as previously described, with some modifications. In brief, radioligands were prepared at a molar activity of 25 MBq/nmol. […] Non-specific binding and uptake were measured in presence of 1 µmol/L acetyl-TATE. The uptake fraction of radioligands was measured after acid wash with Dulbecco's phosphate-buffered saline containing 0.9 mmol/L CaCl2, 0.5 mmol/L MgCl2, and 0.05 mol/L glycine, pH 2.8, for 5 min.

[2] = system: HEK293-SSTR2+ tumor xenografts; settings: within seven days, cited from earlier work
MPC cells [3] = format: cell-based, mouse; settings: relative loss normalized to initial SSTR2-specific binding
Procedure: MPC cells (2.25 × 10^5/well) were seeded into collagen coated CELLSTAR 48‑well microplates (Greiner Bio‑One, 67180) and grown for three days. Cell culture medium and washing buffer were pre-warmed at 37 °C, unless specified otherwise. Radioligands were prepared at a molar activity of 40 MBq/nmol. Cells were incubated with the radioligands at a final concentration of 2.5 nmol/L in 0.5 mL of cell culture medium for 1 hour at 37 °C. Non-specific binding was determined in presence of 1 µmol/L acetyl-TATE. Binding to plastic surfaces was determined in cell-free cavities. At the end of radioligand exposure, incubation medium was removed, and cells were washed three times with Dulbecco's phosphate-buffered saline containing 0.9 mmol/L CaCl2 and 0.5 mmol/L MgCl2. Cells were overlayed with 0.5 mL of radioligand-free medium and further incubated at 37 °C for a total duration of 24 hours. At specific sampling points (1, 2, 5, and 24 hours), supernatants were removed from all cavities. […] Activity of cell homogenates was measured using the gamma counter Wizard^2 2480 (PerkinElmer, Waltham, MA, USA). Release kinetics were analyzed by non-linear regression using the 'two phase decay' model implemented in Prism 10 (GraphPad Software) with the 'Top' and 'Bottom' parameters constrained at 100 %, and 0 %, respectively.

[4] = cited from earlier work
[5] = Tissue pharmacokinetics by quantitative SPECT imaging in MPC allograft mice; settings: mouse, in vivo; for tissue uptake per volume at 1 h / tissue uptake per volume at 5 h / tissue uptake per volume at 72 h / tissue uptake per volume at 168 h / Heart (blood) concentration half-life eff. / Liver concentration half-life eff. / Total body contents half-life eff.: female; for tissue uptake per volume at 1 h / tissue uptake per volume at 5 h / tissue uptake per volume at 72 h / tissue uptake per volume at 168 h: Rj:NMRI-Foxn1^nu/nu nude, iv, 50 MBq, total radioactivity; for Heart (blood) concentration half-life eff. / Liver concentration half-life eff. / Total body contents half-life eff.: nude (Rj:NMRI-Foxn1^nu/nu)
Procedure: All animal experiments were carried out according to the guidelines of the German Regulations for Animal Welfare and have been approved by the local Ethical Committee for Animal Experiments. MPC cells (4 × 10^6) were injected subcutaneously into the shoulder of 10-14‑week‑old female nude mice (Rj:NMRI-Foxn1^nu/nu, Janvier Labs, Le Genest-Saint-Isle, France). Prior to treatment and imaging procedures, anesthesia was induced and maintained with inhalation of 10 % (v/v) desflurane in 30/10 % (v/v) oxygen/air. During anesthesia, animals were continuously warmed at 37 °C. Body weight was monitored three times per week and tumor diameters were measured using a caliper. Tumor volume was calculated assuming a tri‑axial ellipsoid with the diameters a, b, and c using the formula V = π/6 × a × b × c. For urine collection, animals were separated in clear conventional rodent boxes. After spontaneous micturition, voided urine was aspirated with a pipette tip, diluted 1:2 with ultrapure water and stored at -80 °C until further processing. For blood sampling, animals were placed in a restrainer and 50 µL of blood were collected from a lateral tail vein using a syringe needle rinsed with heparin. Blood samples were mixed with 4 µL of a 10 % (w/v) aqueous potassium-EDTA solution and kept at 4 °C until further processing. Animals were sacrificed using CO2 inhalation and cervical dislocation.
Tumor-bearing mice were treated with the SSTR2 radioligands at a single initial activity dose of 50 MBq delivered in 0.2 mL of 0.154 mol/L NaCl(aq) through injection into a tail vein (see Supporting information, Table S 1 for further details). Small-animal single-photon emission computed tomography (SPECT) was performed using the Mediso NanoScan® SPECT/CT (Mediso Medical Imaging Systems, Budapest, Hungary). […] With each SPECT scan, a corresponding CT image was recorded and used for anatomical referencing and attenuation correction. Details on image acquisition and reconstruction parameters are included in the Supporting information.
Regions of interest (ROIs) were generated using tissue-specific signal intensity thresholds. ROI-averaged activity concentrations in tissues [MBq/mL] were determined. Details on SPECT image resolution, image quantification tests, and tissue delineation are included in the Supporting information.
(§1) Unless specified otherwise, all activity values are reported without decay correction. Time courses of normalized activity concentrations [% initial A/mL] (organs, tumors) or normalized activity amounts [% initial A] (total body, urinary bladder) were analyzed by non-linear regression using the 'One-phase decay', 'Plateau followed by one-phase decay', or 'Two-phase decay' models implemented in Prism 10 (GraphPad Software), with extrapolated y‑values approaching a lower limit constrained to 0. The normalized time-cumulated activity per milliliter of tissue [% initial A/mL × d] was calculated from areas under time-activity curves. For dose estimation in tumors and kidneys, these values were further converted into total time-cumulated organ activity per initial activity dose [MBq × h/MBq] using a realistic dosimetry model for 30‑g‑mice implemented in Olinda 2.2.3 (Hermes Medical Solutions AB, Stockholm, Sweden). The physical density of tissues was assumed to be 1 g/cm^3. The radionuclide-specific mean absorbed tissue dose DT [Gy] in tumors and kidneys was calculated using the sphere model in Olinda 2.2.3 (Hermes Medical Solutions AB).
Method: Extraction of tissue -specific activity concentrations from SPECT/CT images Tissue-specific regions of interest (ROIs) were generated in ROVER 3.0.77h (ABX). Sphere masks were positioned to pre -select tissue -specific regions for delineation. ROIs were generated within the masks using tissue -specific threshold -based delineation (% of maximum voxel intensity within the given mask)

[6] = Absorbed dose calculation in tumors and kidneys of MPC allograft mice; settings: mouse, in vivo
Procedure: as §1

[7] = human
Procedure: Tissue-specific pharmacokinetic profiles of radioligands in mice were transformed into human time scale and organ masses using allometric scaling, and dose calculations were performed as reported elsewhere, with some modifications. In brief, projected cumulated activity in human organs was calculated by curve fitting as described above for investigations in mice. Calculations were performed separately for female and male subjects. Cumulated activity in the urinary bladder was determined assuming a voiding interval of four hours. Projected human doses were calculated for male and female subjects using the ICRP 89 Adult Female (60 kg) and ICRP 89 Adult Male (73 kg) models implemented in Olinda 2.2.3 (Hermes Medical Solutions AB).

NCI‑H69 xenografts = settings: mouse, in vivo; cited from earlier work
GOT‑1 xenografts = settings: mouse, in vivo; cited from earlier work
[8] = cited from earlier work; remark: listed apart in the source
[9] = mouse, in vivo; cited from earlier work

## C[C@@H](O)[C@H](NC(=O)[C@@H]1CSSC[C@H](NC(=O)[C@@H](Cc2ccccc2)NC(=O)CN2CCN(CC(=O)O)CCN(CC(=O)O)CCN(CC(=O)O)CC2)C(=O)N[C@@H](Cc2ccc(O)cc2)C(=O)N[C@H](Cc2c[nH]c3ccccc23)C(=O)N[C@@H](CCCCN)C(=O)N[C@@H]([C@@H](C)O)C(=O)N1)C(=O)O [[^64Cu]Cu‑DOTA-TATE, metal not drawn]
MPC cells [1]; listed as DOTA ^64Cu
  Uptake fraction: 61 ± 4.6%
[2]; reported, reference not given
  release from tumor xenografts: 86%

## C[C@@H](O)[C@H](NC(=O)[C@@H]1CSSC[C@H](NC(=O)[C@@H](Cc2ccccc2)NC(=O)CCC(C(=O)O)N2CCN(CC(=O)O)CCN(CC(=O)O)CC2)C(=O)N[C@@H](Cc2ccc(O)cc2)C(=O)N[C@H](Cc2c[nH]c3ccccc23)C(=O)N[C@@H](CCCCN)C(=O)N[C@@H]([C@@H](C)O)C(=O)N1)C(=O)O (stereo partly drawn) [[^64Cu]Cu‑NODAGA-TATE, metal not drawn]
MPC cells [1]; MPC cells
  effective uptake lower compared to [177Lu]Lu-DOTA-TATE: 77%
MPC cells [1]
  Uptake fraction: 64 ± 4.1%
MPC cells [3]
  24 h release: 73 ± 1.9^ # %
MPC cells [3]; 1 hour exposure
  Fast fraction: 42 ± 3.3%
[4]
  plasma half-life: > 1440 min

## C[C@@H](O)[C@H](NC(=O)[C@@H]1CSSC[C@H](NC(=O)[C@@H](Cc2ccccc2)NC(=O)CCC(C(=O)O)N2CCN(CC(=O)O)CCN(CC(=O)O)CC2)C(=O)N[C@@H](Cc2ccc(O)cc2)C(=O)N[C@H](Cc2c[nH]c3ccccc23)C(=O)N[C@@H](CCCCN)C(=O)N[C@@H]([C@@H](C)O)C(=O)N1)C(=O)O (stereo partly drawn) [[^67Cu]Cu‑NODAGA-TATE, metal not drawn]
[5]; Heart
  tissue uptake per volume at 1 h: 0.35 ± 0.13 %ID/mL
[5]; Kidneys
  tissue uptake per volume at 1 h: 6.69 ± 0.46 %ID/mL
  tissue uptake per volume at 5 h: 3.87 ± 0.26 %ID/mL
[5]; Liver
  tissue uptake per volume at 1 h: 0.63 ± 0.01 %ID/mL
  tissue uptake per volume at 5 h: 0.57 ± 0.01 %ID/mL
  tissue uptake per volume at 72 h: 0.15 ± 0.04 %ID/mL
  tissue uptake per volume at 168 h: 0.03 ± 0.02 %ID/mL
[5]; Tumor
  tissue uptake per volume at 1 h: 17.7 ± 1.83 %ID/mL
  tissue uptake per volume at 5 h: 13.5 ± 1.4 %ID/mL
  tissue uptake per volume at 72 h: 0.14 ± 0.01 %ID/mL
[5]
  Heart (blood) concentration half-life eff.: 7.8 min
  Liver concentration half-life eff.: 1210 ± 241 min
  Total body contents half-life eff.: 19.2 min
[6]
  DT, Kidneys (mean absorbed dose in kidneys): 2.42 ± 0.20 Gy
  estimated absorbed dose in kidneys: 2.42-2.81 Gy/50 MBq
[7]
  extrapolated female blood effective half-life: 52.8 min

## C[C@@H](O)[C@H](NC(=O)[C@@H]1CSSC[C@H](NC(=O)[C@@H](Cc2ccccc2)NC(=O)CN2CCN(CC(=O)O)CCN(CC(=O)O)CCN(CC(=O)O)CC2)C(=O)N[C@@H](Cc2ccc(O)cc2)C(=O)N[C@H](Cc2c[nH]c3ccccc23)C(=O)N[C@@H](CCCCN)C(=O)N[C@@H]([C@@H](C)O)C(=O)N1)C(=O)O [[^68Ga]Ga‑DOTA-TATE, metal not drawn]
MPC cells [1]; listed as DOTA ^68Ga
  Uptake fraction: 87 ± 1.9%

## C[C@@H](O)[C@H](NC(=O)[C@@H]1CSSC[C@H](NC(=O)[C@@H](Cc2ccccc2)NC(=O)CN2CCN(CC(=O)O)CCN(CC(=O)O)CCN(CC(=O)O)CC2)C(=O)N[C@@H](Cc2ccc(O)cc2)C(=O)N[C@H](Cc2c[nH]c3ccccc23)C(=O)N[C@@H](CCCCN)C(=O)N[C@@H]([C@@H](C)O)C(=O)N1)C(=O)O [[^177Lu]Lu‑DOTA-TATE, metal not drawn]
[5]; Heart
  tissue uptake per volume at 1 h: 0.21 ± 0.18 %ID/mL
[5]; Kidneys
  tissue uptake per volume at 1 h: 4.05 ± 0.01 %ID/mL
  tissue uptake per volume at 5 h: 3.23 ± 0.04 %ID/mL
  tissue uptake per volume at 72 h: 0.08 ± 0.01 %ID/mL
[5]; Liver
  tissue uptake per volume at 1 h: 0.24 ± 0.04 %ID/mL
[5]; Tumor
  tissue uptake per volume at 72 h: 6.79 ± 0.55 %ID/mL
  tissue uptake per volume at 168 h: 1.33 ± 0.11 %ID/mL
[5]; 1 h, decay-corrected, Am 40 MBq/nmol, read-out: Tumor
  tissue uptake per volume at 1 h: 22.7 ± 1.84 %ID/mL
[5]
  Heart (blood) concentration half-life eff.: 7.8 min
  Liver concentration half-life eff.: 68.4 ± 1.2 min
  Total body contents half-life eff.: 15 min
  release from MPC tumors: 94%
[6]
  DT, Kidneys (mean absorbed dose in kidneys): 2.81 ± 0.14 Gy
  absorbed doses in MPC tumors: 22.0-41.1 Gy
  estimated absorbed dose in kidneys: 2.42-2.81 Gy/50 MBq
  highest absorbed dose in MPC tumors per administered activity: 0.80-0.82 Gy/MBq
[7]
  extrapolated female blood effective half-life: 49.8 min
[2]
  release from tumor xenografts: 95%
NCI‑H69 xenografts
  absorbed tumor dose per administered activity: 0.33-0.36 Gy/MBq
  release from tumor xenografts: 68−85%
  total absorbed dose in tumors: 10.0-10.2 Gy
GOT‑1 xenografts
  absorbed tumor dose per administered activity: 0.27 Gy
  release from tumor xenografts: 47%
  total absorbed dose in tumors: 8.1 Gy
[8]; clinical experience
  total absorbed kidney doses well tolerated without acute nephrotoxicity: up to 23 Gy
[8]; human, in vivo
  human effective dose in clinical dosimetry: 0.069 mSv/MBq
[9]
  threshold dose for proximal tubular damage, absorbed in renal cortex: 24 Gy
